Measurements as given in PMC5777782, “Dimeric and tetrameric forms of muscle fructose-1,6-bisphosphatase play different roles in the cell” (Oncotarget, 2017).
Changes are numbered by the printed parent chain. Values belong to the molecule of their own block, whether it stands above or below them.

What was measured:
[1] = target: T1, Muscle fructose-1,6-bisphosphatase (FBP2), L190G mutant (Homo sapiens, UniProt O00757, L191G); experiment: coupled enzyme activity assay, biphasic inhibition (second phase IC50 […]); type: biochemical
T1 construct: tag-free FBP2, expressed in E. coli
T1 sequence (O00757 2-339 L191G): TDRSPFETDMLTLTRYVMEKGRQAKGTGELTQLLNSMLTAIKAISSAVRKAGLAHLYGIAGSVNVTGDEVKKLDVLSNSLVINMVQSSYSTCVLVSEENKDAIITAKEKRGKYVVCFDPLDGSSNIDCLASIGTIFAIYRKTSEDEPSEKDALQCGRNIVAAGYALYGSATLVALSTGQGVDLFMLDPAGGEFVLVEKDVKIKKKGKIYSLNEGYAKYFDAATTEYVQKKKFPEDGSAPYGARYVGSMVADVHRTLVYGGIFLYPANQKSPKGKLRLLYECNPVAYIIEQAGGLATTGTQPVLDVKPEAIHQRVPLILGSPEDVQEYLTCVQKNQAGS

[2] = target: T2, Muscle fructose-1,6-bisphosphatase (FBP2), wild-type (Homo sapiens, UniProt O00757); experiment: coupled glucose 6-phosphate isomerase/glucose 6-phosphate dehydrogenase activity assay; AMP-induced tetramerization by sedimentation velocity ultracentrifugation; type: biochemical
T2 construct: tag-free WT FBP2, expressed in E. coli
T2 sequence (O00757 2-339): T1 sequence (O00757 2-339 L191G) with G190L

[3] = target: T3, Muscle fructose-1,6-bisphosphatase (FBP2), D187L mutant (Homo sapiens, UniProt O00757, D188L); experiment: coupled enzyme activity assay; oligomerization by sedimentation velocity ultracentrifugation; type: biochemical
T3 construct: tag-free FBP2, expressed in E. coli
T3 sequence (O00757 2-339 D188L): T1 sequence (O00757 2-339 L191G) with D187L, G190L

[4] = target: human FBP2 D187L mutant (human); experiment: AUC; sedimentation velocity, laser interferometry, 42,000 rpm, 20°C, protein at 0.1, 0.5 and 1 mg/ml, without AMP; distribution of monomers, dimers and tetramers
[5] = target: human FBP2 D187L mutant (human); experiment: AUC; sedimentation velocity, laser interferometry, 42,000 rpm, 20°C, protein at 0.5 mg/ml, with 5 mM AMP
[6] = target: human FBP2 D187L mutant (human); experiment: AUC; sedimentation velocity, laser interferometry, 42,000 rpm, 20°C, protein at 0.5 mg/ml, with 120 μM AMP
[7] = target: human FBP2 L190G mutant (human); experiment: AUC; sedimentation velocity, laser interferometry, 42,000 rpm, 20°C, protein at 0.1, 0.5 and 1 mg/ml, without AMP; distribution of monomers, dimers and tetramers
[8] = target: human FBP2 L190G mutant (human); experiment: AUC; sedimentation velocity, laser interferometry, 42,000 rpm, 20°C, protein at 0.5 mg/ml, with 5 mM AMP
[9] = target: human FBP2 L190G mutant (human); experiment: AUC; sedimentation velocity, laser interferometry, 42,000 rpm, 20°C, protein at 0.5 mg/ml, with 120 μM AMP
[10] = target: human FBP2 L190G mutant (human); experiment: AUC; sedimentation velocity, laser interferometry, 42,000 rpm, 20°C, protein at 0.5 mg/ml, with 0.16 μM AMP

IC50 [1]: 84400 ± 6730 nM
IC50 [2]: 0.59 ± 0.01 µM
IC50 [3]: 1440 ± 60 nM
Molecule: Nc1ncnc2c1ncn2[C@@H]1O[C@H](COP(=O)(O)O)[C@@H](O)[C@H]1O [AMP]

percent dimeric [4]: 83.4%
stoichiometry N [4]: 2
percent tetrameric [5]: 35%
percent tetrameric [6]: 45%
Molecule: human FBP2 D187L mutant (enzyme)

percent dimeric [7]: 91.2%
stoichiometry N [7]: 2
stoichiometry N [8]: 2
stoichiometry N [9]: 2
stoichiometry N [10]: 2
Molecule: human FBP2 L190G mutant (enzyme)
